{
  "source": "the DeepSol protein solubility set",
  "data": [
    {"assay": "soluble on expression in E. coli; label from the status in PepcDB or PDB records", "values": [
      {"sequence": "SVRTACKSRAVSSGKQTGKWQSWSDAGVLTVFECEGLKLILNTWTPIPFSPFPVHHLFTPMLIGRLCGTRIETLALIHGGISLPATALRSPNSGVKLPLLVSPLFPMETTPSALRLLSSHKAESGSPTLFTLVHLLPLLLQ", "soluble on expression in E. coli": "soluble"},
      {"sequence": "MGSDKIHHHHHHMSQILLIHSSVHGYTQKICEYLQRQLIEQDQLVTVASLAEAPDLALFDKVYIGASIRHGKHRPALYQFIEDHRAELDNKPSGFFSVSLVARKPNKNTPQTNSYMQQFLSQSPWQPKLLQVFGGNLDYQGYGAMDRNIIRFIMWLTKGPTDPNTKVEFTDWQKVDEFAQQIIEA", "soluble on expression in E. coli": "not soluble"},
      {"sequence": "MSSVERYLSQLVKTEPQLETLKELYIGKKWHQLTEELLKLIHSGQVNRINLVELYDSFIREFESSLNPLALVRILVGIARKNYRDLNKALEFVDYATNSKAFISADEEASLFLKSETARLKLEGGNLSGVKQILEEVGVAMESTRDLDTVVHSSYHRVCAQYYKAVGPATKYYSSALLFFQYAPLDSFTVEERVHWAYDLGVASIVAETIFNFGEILEYDIMQSLKSEKLQWLLELLEAFKYGSIEKFNQIGNRARDQINQEPALSSNWQFLEQKIRLRSLMELATKKLVERVISFDDICSSCEVTKDQVEYLVMKALSLHLLQGTINEMDETVSISYVQPKTLDRNEVEGLYNRLIPWKTHVHEIALSLERSTEADLAQAQN", "soluble on expression in E. coli": "soluble"},
      {"sequence": "MTLNKTDRIVITLGKQIVHGKYVPGSPLPAEAELCEEFATSRNIIREVFRSLMAKRLIEMKRYRGAFVAPRNQWNYLDTDVLQWVLENDYDPRLISAMSEVRNLVEPAIARWAAERATSSDLAQIESALNEMIANNQDREAFNEADIRYHEAVLQSVHNPVLQQLSIAISSLQRAVFERTWMGDEANMPQTLQEHKALFDAIRHQDGDAAEQAALTMIASSTRRLKEIT", "soluble on expression in E. coli": "not soluble"},
      {"sequence": "NTWKIFVGNVSAACTSQELRSLFERRGRVIECDVVKDYAFVHMEKEADAKAAIAQLNGKEVKGKRINVELSTKGQKK", "soluble on expression in E. coli": "soluble"},
      {"sequence": "MKTPTFGKREETLTYQTRYAAYIIVSKPENNTMVLVQAPNGAYFLPGGEIEGTETKEEAIHREVLEELGISVEIGCYLGEADEYFYSNHRQTAYYNPGYFYVANTWRQLSEPLERTNTLHWVAPEEAVRLLKRGSHRWAVEKWLAAASLEHHHHHH", "soluble on expression in E. coli": "soluble"},
      {"sequence": "NNTPVTNKLKAYGDANFNFTNNSIADAEKQVQEAYKGLLNLNEKNASDKLLVEDNTAATVGNLRKLGWVLSSKNGTRNEKSQQVKHADEVLFEGKGGVQVTSTSENGKHTITFALA", "soluble on expression in E. coli": "soluble"},
      {"sequence": "MGTMHTSELLKHIYDINLSYLLLAQRLIVQDKASAMFRLGINEEMANTLGALTLPQMVKLAETNQLVCHFRFDDHQTITRLTQDSRVDDLQQIHTGIMLSTRLLNEVDDTARKKRA", "soluble on expression in E. coli": "not soluble"},
      {"sequence": "MSLASVIADVPGMKTIVQVLTFRDYQYDDGWHQANIEVPAISGLEESGLGQALNQKYLEENKKLYEDFMADVEEMKALGDGHMGVDSGYEIKTDNERLLAIGRYVVNTVGSSSTVFKYDTIDKVDQVLITLPSLFKDDSYVQVISDYIVNEMKAKMKADSNLIYWVVTDENKDEVNYFEPFTQIKPEQSFYINSDYKLVISFDKYEVGPGVMGMQEFVIPTEVIADRLVSDEYVREGHHHHHH", "soluble on expression in E. coli": "soluble"},
      {"sequence": "MSLDQQSKEQLNIREMTKEDVPQVFDLERRSFNDSSWTIDAFYHEIEQNNFAKYFVLEFEQQIIGYLGLWIVIDQAQITTVAIDDNYRGYGLGQMLLKYGINYASHTCDVMSLEVRVNNKVAQHVYENLGFQYGGKRKNYYGEGEDAMVMWVNLNDEGHHHHHH", "soluble on expression in E. coli": "soluble"},
      {"sequence": "SSVLLRPILPEDEPKHASFISQVSHDDLYKRFFSEVGEFNHEALANFTQIDYDREMAFVATKQIDGEEIIIAVVRALSDPNHTNTEFAVLVRSDLKGLGLGKILMEKIIRYCQSIGIKVMTGMTMPANHGMIGLAQHLGFSVDIQMSDGVVDMFLEL", "soluble on expression in E. coli": "not soluble"},
      {"sequence": "MGHHHHHHSHMLSPERLALPDYEYLAQRHVLTYMEDAVCQLLENREDISQYGIARFFTEYFNSVCQGTHILFREFSFVQATPHNRVSFLRAFWRCFRTVGKNGDLLTMKEYHCLLQLLCPDFPLELTQKAARIVLMDDAMDCLMSFSDFLFAFQIQFYYSEFLDSVAAIYEDLLSGKNPNTVIVPTSSSGQHRQRPALGGAGTLEGVEASLFYQCLENLCDRHKYSCPPPALVKEALSNVQRLTFYGFLMALSKHRGINQALGALPDKGDLMHDPAMDEELERLLAQVPGLVNSVTASPEASCLPSRTPPRVGSPWRPLHHSRKVDGESDGSTEETDESET", "soluble on expression in E. coli": "not soluble"},
      {"sequence": "MSLARSVVVSAEAVYSHEGEYVGDHVLVDEGLVKSISRGEPHVSVGKRVAVKGFLLPPLVDAHLHMRSLGASFRIVNLKGASSPEEVAKRLAAANSPIAVGRGWNEEEFRPGSRLDRRILDSYLGEKPALAVRICGHVAVANSAFIRESGVDKLFPNLVDRERGLLLEDAVSYAVSVAMKTYNNEELLRDAASALASVGVFGVSSMACSEEEVRALSLIGDALEVRVACYLRRGVEPPPKRAGARWSIVGVKLFADGSLGGRTAYLRRPYISGENEGWRGLKLLSSRDIAEEAVSNSHRGLATAVHAIGDAALDEVLEGFSNAISRGVEPGMLRVEHASLAWPNQIDRLASLRVWTVVQPLFRVSDWWLESRVGSDMLQAAYPFASMLRAGVKLALSTDAPVETYDPAETFKAAVGLCSSRLCRESESLTPRETLKLYTLNSALASGGPVAWLGRLRRGAPALFAVANVDVLNSGRKELEKLKFRGLNLAKEGHHHHHH", "soluble on expression in E. coli": "soluble"},
      {"sequence": "MAKTLAQGRKPGSGRKPGKGKTLREGRKPGSGRRRRQDTGGKETDGSQQDQESRLISSRDMEAVDALRELTHSPSSHSAHNSSAAPPPHAAAASTSLPPSLDYTHQSF", "soluble on expression in E. coli": "soluble"},
      {"sequence": "MSLSTMLVAEDLSAVGGISLSSALPVLTAMQYDVAALPTSLLSTHTSGYGTPAVVDLSTWLPQVFAHWTRAQLHFDQALIGYVGSVALCQQITTYLEQQTLSLLVVDPVLGDLGQLYQGFDQDYVAAMRQLIQQADVILPNTTEAALLTGAPYQVTPDLEVILPALQAQLKTGAHAVITDVQRADQIGCAWLDEAGHVQYCGARRLPGHYNGTGDTLAAVIAGLLGRGYPLAPTLARANQWLNMAVAETIAQNRTDDRQGEGHHHHHH", "soluble on expression in E. coli": "not soluble"},
      {"sequence": "DTILCFGDCRPLHKEAKRWAKSKGIRFLAFEEGYLRPQFITVEEGGVNAYSSLPRDPDFYRKLPDMPAPHVENLKPSTMKRIGHAMWYYLMGWHYRHEFPRYRHHKSFSPWYEARCWVRAYWRKQLYKVTQRKVLPRLMNELDQRYYLAVLQVYNDSQIRNHSNYNDVRDYINEVMYSFSRKAPKESYLVIKHHPMDRGHRLYRPLIKRLSKEYGLDERVIYVHDLPMPELLRHAKAVVTINSTAGISALIHNKPLKVMGNALYDIKGLTYQGHLHQFWQADFKPDMKLFKKFRGYLLVKTQVNGGYY", "soluble on expression in E. coli": "not soluble"},
      {"sequence": "MNFADIFSKIRRQQPSVKEAPNHWVKCQSCHALMYYKEIESCFNVCPKCNYHMRISADERIKLLSDEGSFIEYDANLEAIDPLKFVDSKSYKKRLSEGESKTGRKSSVISGECEINGLKTQLVVFDFSFMGGSLGSVEGEKIVRAIQRAITSKTSLVIVSASGGARMQESTYSLMQMSKTSAALKLLSKEKLPYISILTDPTMGGVSASFAWLGDLIIAEPEALVGFAGARVIKQTIGADLPEGFQKAEFLLEHGLIDAIVERGEQKQYLSDVLKFFSGKLEHHHHHH", "soluble on expression in E. coli": "not soluble"},
      {"sequence": "MGSDKIHHHHHHMTDDSLFLIDVDKILRTKAPKQYKYIPKFVVSYLKKIVHQDEINVFLNESKDKLGVDFLEACMEFLDAKVEVKGIENLPKEGLYTFVSNHPLGGQDGVALGYVLGRHYDGKVKYLVNDLLMNLRGLAPLCVPINKTGKQAKDFPKMVEAGFQSDDQMIMFPAGLCSRRQNGVIRDLEWKKTFIIKSIQAKRDVVPVHFGGRNSDFFYNLANVCKALGIKFNIAMLYLADEMFKNRHKTFTVTFGKPIPWQTFDKSKTPAQWAEYVKDIVYKL", "soluble on expression in E. coli": "not soluble"},
      {"sequence": "MGSDKIHHHHHHMTKEINPFIVTGKIEPEYFCDRVKESERLVKSLTNGNNLVIISPRRMGKTGLIRFCYEKPEIKEEYYTFFIDILHTSSLREFTYLLGKEIYETLLPRSKKMASLFIQTVKSINGKFGFDPLTNLPTFNLELGDIDRPEYTLEEIFQCLIAADKPCIVAIDEFQQIAKYPEKNIEALLRTHIQTIENSNFIFAGSERHMMQEMFLSSSRPFYHSADILELKAIVPEIYIPFIADHFQKRKRHIEIENIEKVYRLFKGHTFYIQKTFNEAFADTPKGKECTLEIIKTAIDNLIAYNDTIFREILSNIPEKQKELLYAIAKVGEAENVTSAKFIKRYSLTSASSVQSATKKLLEKDIITEINKVYSVTDKFFGMWINTIYGNKYTL", "soluble on expression in E. coli": "not soluble"},
      {"sequence": "MENHDLVIVGGGISGLQAAISAKKSGVQDIVLIEAEDSLGGILNQCIYTGFGMEDFKEELTGTEYVQRFIDEFLELNIEYKLNTTVIKISKNKVITAVSPNEGIIEIKACSIIFAAGAVEKPQKSIRVLTKDLSGIYSALTVGRFINIHGYMPGKSIVILGANKIGNALANRIFIEGGKVKAVIDSEVGFDERNEIIEFLAEINIPFLYNYNIVKIKGSERIEGIYISDENGEKFISCDTLILALKLNPNDKILREANIKILNKERNEINTNVPGVFIVGNALYIHESNEGSPLENRKAGEMSAEYIRATLLEHHHHHH", "soluble on expression in E. coli": "not soluble"},
      {"sequence": "MGSDKIHHHHHHMRSFTQSSKPIFKDHIVQQSSLVANNYRFIGPRLIDNTPVLFGSFSVVQLNPHLILHTADVINRHNMKTQNLLDSAIKLAIVVSGNAHISFGHQELHLGESQPASLIALTEPTMFTRIGKRDEYERTITLTFDREWLYGNMMDTVGDWQAIHDFTQTHLATHLWTPSRQARAIALQTLDANPCQTPLQRLYLETQCMSLIIEAFTSLTASVAQEKSSGVTLRGYHRIQQIRDMLESGSADHLSMSEIAKSVNMSESTLQRHFRQTFNMSVFEYLRNCRLQRAMLALQKDGIGIAQAASIAGYNSPANFATALRRAFGITPGQLKDRF", "soluble on expression in E. coli": "not soluble"},
      {"sequence": "MGSDKIHHHHHHMEANDLLTLGLGLTAPWRVVDQSLDLSKQPSELRLEVEAARGERYPCPACGALCKAHDFAEFSWRHLNFFQHHCLIKARVPRVRCPEHGLKRVNVPWARPGSGFTLLFEQAVMLLAREMPVNAVARYVGVTDKRIWRVVTHYVLKGMGKLDLSRLCGIGLDETATKRGHHYVTIFVDMDRESRPVVFATPGKGKECLKTFAAYLKGRQGNPENVVEVVCDMSPAFLSAAEATFRNAAVTVDWFHVVQIFTKALDEVRRLEAREVILPKAARWAVLKGLETWRIEEQVAALKELEERGLATATAFRVKELLRWVRKADTRQGARWRATRFFEFARELAGDSVLLAPVRKALNTFEDHLPRILRRWDSLLSNARLEGLNGLFQAARSRARGYRNVTTFITMIYLIGAPITQLLEA", "soluble on expression in E. coli": "not soluble"},
      {"sequence": "MAHHHHHHMPADSTATAREVPIDTVALQLDAEMAQMRLQRQRYSTLCTRKNRLQAHVDELNAQGKDLTFQRQREQTRSAQELEHGLASSSTSLPEISRTPGDQAQLPAEVLGGALQELTACITERRELLQHLRDGSHDCLKLRDARFAKCSLSTVAGLDDHVASQSGIHASDTTAVIAGRGEAPTRCAARNPVSDSAVTSAAPASGLRHVEEGLAKAHQALCRGEEKALAEREYLLLLLQQCAQPQQLQQGRGRLACRQMAD", "soluble on expression in E. coli": "not soluble"},
      {"sequence": "MKDILGKTFECSCGKTHEVPDIEILETSIREAPDVFSDAFFIADLNTASLVDLPGKRSFVFNERRPLATMENV", "soluble on expression in E. coli": "not soluble"},
      {"sequence": "MAHHHHHHMQPFQFVPQVDNKVNVVSMQPFQMYVPNHNMMVPQACPENIQQYHHQPIFFEPLPPIYVKNQLLPSPILVQMPTTVVVQNESQPAMVLSQPPSNIVVKNNPPTSVFVKQSNPNVVVKNEAPPNYVQSVEACQEGVVADMSRPMMTTLNKNIL", "soluble on expression in E. coli": "not soluble"}
    ]}
  ]
}
